Target: DAO-6H (recombinant D-amino acid oxidase with C-terminal (His)6) (UniProt P14920)
Sequence (P14920 whole entry): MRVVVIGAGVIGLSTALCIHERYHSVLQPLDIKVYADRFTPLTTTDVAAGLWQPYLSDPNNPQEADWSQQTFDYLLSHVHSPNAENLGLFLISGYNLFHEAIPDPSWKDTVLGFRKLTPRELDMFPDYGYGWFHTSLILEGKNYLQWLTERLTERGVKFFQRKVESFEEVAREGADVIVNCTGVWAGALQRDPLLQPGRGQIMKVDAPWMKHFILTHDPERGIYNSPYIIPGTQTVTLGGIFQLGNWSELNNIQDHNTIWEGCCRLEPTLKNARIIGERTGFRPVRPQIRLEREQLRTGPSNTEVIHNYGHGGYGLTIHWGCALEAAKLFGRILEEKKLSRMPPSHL

B1: G72-6H (recombinant full-length G72 with C-terminal (His)6, refolded) (natural protein)
chain: MLEKLMGADSLQLFRSRYTLGKIYFIGFQRSILLSKSENSLNSIAKETEEGRETVTRKEGWKRRHEDGYLEMAQRHLQRSLCPWVSYLPQPYAELEEVSSHVGKVFMARNYEFLAYEASKDRRQPLERMWTCNYNQQKDQSCNHKEITSTKAE
  initial velocity (V0) of DAO activity (400 nM DAO-6H, 40 mM D-alanine, 25 °C) with 0, 1, 3, 10 μM G72; V0 at 10 μM, fold of DAO alone in parentheses (mol hydrogen peroxide produced/min/g DAO): 8.06
